One block for each binder: values may come before it.
Tests used:
[1] = biological target: T1, soluble human OSMR (Oncostatin M receptor) (human, UniProt Q99650 28-740); assay: SPR (SensiQ), OSM-M2 immobilised, soluble OSMR injected (150nM, 100nM, 50nM, 25nM, 10nM, 5nM)
T1 construct: extracellular domain; Bought; also called soluble OSMR
T1 sequence (looked up): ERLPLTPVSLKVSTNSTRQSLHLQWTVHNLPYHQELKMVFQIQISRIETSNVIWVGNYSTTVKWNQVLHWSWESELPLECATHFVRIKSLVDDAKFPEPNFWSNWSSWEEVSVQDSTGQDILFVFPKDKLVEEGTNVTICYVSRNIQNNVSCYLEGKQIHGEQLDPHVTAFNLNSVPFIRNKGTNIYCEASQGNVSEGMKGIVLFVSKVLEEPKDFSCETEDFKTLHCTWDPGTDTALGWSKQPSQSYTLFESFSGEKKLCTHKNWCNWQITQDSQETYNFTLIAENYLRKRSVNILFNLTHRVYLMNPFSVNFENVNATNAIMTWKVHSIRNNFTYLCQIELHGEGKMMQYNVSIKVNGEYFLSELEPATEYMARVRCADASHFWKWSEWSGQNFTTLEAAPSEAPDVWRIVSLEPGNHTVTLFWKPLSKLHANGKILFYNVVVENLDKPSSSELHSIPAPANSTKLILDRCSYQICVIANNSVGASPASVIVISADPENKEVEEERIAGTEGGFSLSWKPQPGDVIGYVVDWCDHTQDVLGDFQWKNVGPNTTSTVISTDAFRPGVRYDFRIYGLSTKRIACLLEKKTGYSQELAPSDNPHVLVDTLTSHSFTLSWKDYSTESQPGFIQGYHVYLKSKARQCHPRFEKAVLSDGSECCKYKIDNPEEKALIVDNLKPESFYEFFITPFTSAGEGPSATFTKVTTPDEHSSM
Procedure: (§1) Surface Plasmon Resonance (SPR): Kinetic parameters of the interactions between receptor domains and the cytokines LIF, OSM-WT, OSM-M1 or OSM-M2 were analyzed by SPR using the SENSIQ® system (ICX Technologies, Oklahoma City, Okla.) as described by the manufacturer protocol. Briefly, a carboxyl sensor with two channels was installed in SENSIQ® and allowed to thermally equilibrate for about 15 minutes. The channels were initially cleaned with a 3 minute injection of 0.1 M HCl. An activation solution of 2 mM 1-Ethyl-3-[3-dimethylaminopropyl]carbodiimide hydrochloride (EDC) and 0.5 mM N-hydroxysulfo succinimide (NHS) was prepared in deionized water immediately before injection. Activation solution was injected over both channels for approximately 3 minutes followed by a 10 minute injection of 50 μg/mL cytokine (LIF, OSM-WT, OSM-M1 or OSM-M2) in 10 mM acetate buffer, pH 5.0, over channel 1. […] Unreacted NHS esters were capped with a 3 minute injection of 1 M ethanolamine, pH 8.0, over both channels. […] A concentration series of soluble LIFR (# 249-LR-050/CF, R&D Systems, Minneapolis, Minn.), soluble OSMR (# 4389-OR-50, R&D Systems, Minneapolis, Minn.) or soluble gp130 (# 228-GP-050/CF, R&D Systems, Minneapolis, Minn.) in running buffer (10 mM HEPES pH 7.4, 150 mM NaCl, 3.4 mM EDTA, 0.005% Tween-20) were injected over both channels at a flow rate of 25 μl/min. […]

[2] = biological target: T1, soluble human OSMR (Oncostatin M …); assay: SPR (SensiQ), LIF immobilised, soluble OSMR injected (150nM, 100nM, 50nM, 25nM, 10nM, 5nM)
Procedure: as §1

[3] = biological target: T1, soluble human OSMR (Oncostatin M …); assay: SPR (SensiQ), OSM-WT immobilised, soluble OSMR injected (150nM, 100nM, 50nM, 25nM, 10nM, 5nM)
Procedure: as §1

binding result [1]: no binding (tested: 150 nM)
B1: OSM-M2 (OSM with BC loop truncated from 12 to 4 amino acids) (ligand)
chain: AAIGSCSKEYRVLLGQLQKQTDLMQDTSRLLDPYIRIQGLDVPKLREHCRERPGAFPSEETLRGLGRRGFLQTLNATLGCVLHRLADLEQRLGGGNIEDLEKLQMARPNILGLRNNIYCMAQLLDNSDTAEPTKAGAGASQPPTPTPASDAFQRKLEGCRFLHGYHRFMHSVGRVFSKWGESPN
notes: Made from the 'AGA' modified OSM template; lacks the thrombin site; not shown: N-terminal FLAG tag left after thrombin removal of GST

binding result [2]: no binding (tested: 150 nM)
B2: human leukemia inhibitory factor (LIF) (ligand)
chain: not shown
notes: Purified recombinant protein; also called hLIF

binding result [3]: no binding (tested: 150 nM)
B3: OSM-WT ('AGA' modified human Oncostatin M, referred to as wild-type OSM) (ligand)
chain: AAIGSCSKEYRVLLGQLQKQTDLMQDTSRLLDPYIRIQGLDVPKLREHCRERPGAFPSEETLRGLGRRGFLQTLNATLGCVLHRLADLEQRLPKAQDLERSGLNIEDLEKLQMARPNILGLRNNIYCMAQLLDNSDTAEPTKAGAGASQPPTPTPASDAFQRKLEGCRFLHGYHRFMHSVGRVFSKWGESPN
notes: also called hOSM with AGA modification; not shown: N-terminal FLAG tag left after thrombin removal of GST
